In patent US20250109178A1 (XYPHOS BIOSCIENCES, published 2025) one finds binding result and Kd data, which are given here for six molecules.

In experiment [1] the target is T1, Fc-NKG2D.Y152A (human).
T1 construct: also called NKG2D.YA; Fc-NKG2D.YA
Briefly: ELISA, Fc-eNKG2D coated, MicAbody titrated from 300 nM. The procedure:
(§1) The binding affinities of α1-α2 variants to the extracellular domains of natural (wild-type) NKG2D and non-natural eNKG2D proteins were analyzed using a plate-based ELISA method. […] The plates were washed three times in PBS/0.05% Tween-20 (PBS-T) at 20-22° C., and blocked with 0.5% bovine serum albumin in PBS (PBS-B) for 2 hours at 20-22° C.
A general note: An ELISA detects its analyte on a solid surface through an enzyme-linked reagent.

Experiment [2] concerns the target T2, Fc-NKG2D.wt (natural human NKG2D ectodomain fused to the C-terminus of human IgG1 Fc) (human).
T2 construct: also called natural Fc-NKG2D; wild-type Fc-NKG2D
Description: ELISA, Fc-NKG2D coated, MicAbody titrated from 300 nM (GraphPad Prism). The procedure: as §1

Experiment [3] concerns the target T2, Fc-NKG2D.wt (natural human NKG2D …). Description: ELISA, Fc-NKG2D coated, rituximab MicAbody titrated (FIGS. 16A and 16B).
Experiment [4] has as its target T1, Fc-NKG2D.Y152A. Described as above.
Experiment [5] has as its target Fc-NKG2D.AF, eNKG2D5 (Y152A/Y199F) (human). The experiment is described as above.
Experiment [6] has as its target T2, Fc-NKG2D.wt (natural human NKG2D …). Briefly: titration ELISA, Fc-NKG2D coated, rituximab MicAbody titrated.
For experiment [7] the target is unchanged. Briefly: ELISA, rituximab MicAbody on Fc-NKG2D (legend of FIGS. 16A and 16B).
For experiment [8], the target named is T1, Fc-NKG2D.Y152A. Description: ELISA and Octet.

T2 sequence (chain, as listed by the source limits assumed): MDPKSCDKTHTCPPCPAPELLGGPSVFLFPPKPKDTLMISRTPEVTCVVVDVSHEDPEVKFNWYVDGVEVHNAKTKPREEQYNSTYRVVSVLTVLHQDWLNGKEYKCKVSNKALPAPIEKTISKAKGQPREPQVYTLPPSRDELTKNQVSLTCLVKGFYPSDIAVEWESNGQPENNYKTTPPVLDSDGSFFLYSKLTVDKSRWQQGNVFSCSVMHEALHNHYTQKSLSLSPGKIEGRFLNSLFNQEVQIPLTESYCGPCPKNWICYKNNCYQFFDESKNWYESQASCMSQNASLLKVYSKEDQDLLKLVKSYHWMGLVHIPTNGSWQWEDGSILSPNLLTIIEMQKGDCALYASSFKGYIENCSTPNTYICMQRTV
T1 sequence (chain, as listed by the source Y152A Y152A limits assumed): as the sequence (chain, as listed by the source limits assumed) above, with Y312A counted along it
Fc-NKG2D.AF, eNKG2D5 (Y152A/Y199F) (human), sequence (chain, as listed by the source Y152A Y199F Y152A Y199F limits assumed): as the sequence (chain, as listed by the source limits assumed) above, with Y312A, Y359F counted along it

B1: ULBP2.wt rituximab-MicAbody (bispecific antibody, human IgG1, kappa)
heavy: not shown
light: QIVLSQSPAILSASPGEKVTMTCRASSSVSYIHWFQQKPGSSPKPWIYATSNLASGVPVRFSGSGSGTSYSLTISRVEAEDAATYYCQQWTSNPPTFGGGTKLEIKRTVAAPSVFIFPPSDEQLKSGTASVVCLLNNFYPREAKVQWKVDNALQSGNSQESVTEQDSKDSTYSLSSTLTLSKADYEKHKVYACEVTHQGLSSPVTKSFNRGECAPTSSSGGGGSEPHSLSYDITVIPKFRPGPRWCAVQGQVDEKTFLHYDCGNKTVTPVSPLGKKLNVTTAWKAQNPVLREVVDILTEQLRDIQLENYTPKEPLTLQARMSCEQKAEGHSSGSWQFSFDGQIFLLFDSEKRMWTTVHPGARKMKEKWENDKVVAMSFHYFSMGDCIGWLEDFLMGMDSTLEPS
notes: Rituximab IgG1 with wild-type ULBP2 α1-α2 domain fused to the light chain; bivalent for the α1-α2 domain; also called ULBP2 MicAbody; ULBP2 wild-type MicAbody
The Kd is a measure of binding affinity in units of concentration. As for B1, the binding result with Fc-NKG2D.Y152A [1] is given as “binds”. The molecule also had a Kd in experiment [2] of 1.4 nM.

B2: rituximab-ULBP2.R MicAbody (bispecific antibody, human IgG1, kappa)
heavy: not shown
light: QIVLSQSPAILSASPGEKVTMTCRASSSVSYIHWFQQKPGSSPKPWIYATSNLASGVPVRFSGSGSGTSYSLTISRVEAEDAATYYCQQWTSNPPTFGGGTKLEIKRTVAAPSVFIFPPSDEQLKSGTASVVCLLNNFYPREAKVQWKVDNALQSGNSQESVTEQDSKDSTYSLSSTLTLSKADYEKHKVYACEVTHQGLSSPVTKSFNRGECAPTSSSGGGGSEPHSLSYDITVIPKFRPGPRWCAVQGQVDEKTFLHYDCGNKTVTPVSPLGKKLNVTTAWKAQNPVLREVVDILTEQLWDIQLENYTPKEPLTLQARMSCEQKAEGHSSGSWQFSFDGQIFLLFDSEKRMWTTVHPGARKMKEKWENDKVVATLLWGWSMGDCIGWLEDFLMGMDSTLEPS
notes: also called ULBP2.R rituximab-MicAbody; rituximab-MicAbody
Consider B2, for which the binding result (in experiment [3]; with Fc-NKG2D.Y152A [4]) was “no binding” each time.

B3: rituximab-ULBP2.S3 MicAbody (bispecific antibody, human IgG1, kappa)
heavy: not shown
light: QIVLSQSPAILSASPGEKVTMTCRASSSVSYIHWFQQKPGSSPKPWIYATSNLASGVPVRFSGSGSGTSYSLTISRVEAEDAATYYCQQWTSNPPTFGGGTKLEIKRTVAAPSVFIFPPSDEQLKSGTASVVCLLNNFYPREAKVQWKVDNALQSGNSQESVTEQDSKDSTYSLSSTLTLSKADYEKHKVYACEVTHQGLSSPVTKSFNRGECAPTSSSGGGGSEPHSLSYDITVIPKFRPGPRWCAVQGQVDEKTFLHYDCGNKTVTPVSPLGKKLNVTTAWKAQNPVLREVVDILTEQLWDIQLENYTPKEPLTLQARMSCEQKAEGHSSGSWQFSFDGQIFLLFDSEKRMWTTVHPGARKMKEKWENDKVVATKLYLWSMGDCIGWLEDFLMGMDSTLEPS
notes: also called ULBP2.S3 as a MicAbody
Take B3: the binding result in experiment [3] and in experiment [5] was “no binding” in each case.

B4: rituximab-ULBP2.C MicAbody (bispecific antibody, human IgG1, kappa)
heavy: not shown
light: QIVLSQSPAILSASPGEKVTMTCRASSSVSYIHWFQQKPGSSPKPWIYATSNLASGVPVRFSGSGSGTSYSLTISRVEAEDAATYYCQQWTSNPPTFGGGTKLEIKTVAAPSVFIFPPSDEQLKSGTASVVCLLNNFYPREAKVQWKVDNALQSGNSQESVTEQDSKDSTYSLSSTLTLSKADYEKHKVYACEVTHQGLSSPVTKSFNRGECAPTSSSGGGGSEPHSLSYDITVIPKFRPGPRWCAVQGQVDEKTFLHYDCGNKTVTPVSPLGKKLNVTTAWKAQNPVLREVVDILTEQLWDIQLENYTPKEPLTLQARMSCEQKAEGHSSGSWQFSFDGQIFLLFDSEKRMWTTVHPGARKMKEKWENDKVVATILWQTSMGDCIGWLEDFLMGMDSTLEPS
B4: the binding result in experiment [6] was “no binding”.

B5: rituximab-ULBP2.R80W MicAbody (bispecific antibody, human IgG1, kappa, N297A)
heavy: QVQLQQPGAELVKPGASVKMSCKASGYTFTSYNMHWVKQTPGRGLEWIGAIYPGNGDTSYNQKFKGKATLTADKSSSTAYMQLSSLTSEDSAVYYCARSTYYGGDWYFNVWGAGTTVTVSAASTKGPSVFPLAPSSKSTSGGTAALGCLVKDYFPEPVTVSWNSGALTSGVHTFPAVLQSSGLYSLSSVVTVPSSSLGTQTYICNVNHKPSNTKVDKKVEPKSCDKTHTCPPCPAPELLGGPSVFLFPPKPKDTLMISRTPEVTCVVVAVSHEDPEVKFNWYVDGVEVHNAKTKPREEQYASTYRVVSVLTVLHQDWLNGKEYKCKVSNKALPAPIEKTISKAKGQPREPQVYTLPPSRDELTKNQVSLTCLVKGFYPSDIAVEWESNGQPENNYKTTPPVLDSDGSFFLYSKLTVDKSRWQQGNVFSCSVMHEALHNHYTQKSLSLSPGGGGSEPHSLSYDITVIPKFRPGPRWCAVQGQVDEKTFLHYDCGNKTVTPVSPLGKKLNVTTAWKAQNPVLREVVDILTEQLWDIQLENYTPKEPLTLQARMSCEQKAEGHSSGSWQFSFDGQIFLLFDSEKRMWTTVHPGARKMKEKWENDKVVAMSFHYFSMGDCIGWLEDFLMGMDSTLEPS
light: QIVLSQSPAILSASPGEKVTMTCRASSSVSYIHWFQQKPGSSPKPWIYATSNLASGVPVRFSGSGSGTSYSLTISRVEAEDAATYYCQQWTSNPPTFGGGTKLEIKTVAAPSVFIFPPSDEQLKSGTASVVCLLNNFYPREAKVQWKVDNALQSGNSQESVTEQDSKDSTYSLSSTLTLSKADYEKHKVYACEVTHQGLSSPVTKSFNRGEC
On to B5, for which the binding result in experiment [7] is reported as “binds”.

B6: ULBP2.S3 α1-α2 domain, monomeric His-tagged format (ligand)
chain: EPHSLSYDITVIPKFRPGPRWCAVQGQVDEKTFLHYDCGNKTVTPVSPLGKKLNVTTAWKAQNPVLREVVDILTEQLWDIQLENYTPKEPLTLQARMSCEQKAEGHSSGSWQFSFDGQIFLLFDSEKRMWTTVHPGARKMKEKWENDKVVATKLYLWSMGDCIGWLEDFLMGMDSTLEPS
notes: also called ULBP2.S3 (monomeric His-tagged); not shown: His tag
With B6, the binding result with Fc-NKG2D.Y152A [8] is on record as “binds”.
